Test: Catalytic test of in-vitro expressed UDP-glucosyltransferases, Rebaudioside A to Rebaudioside D (HPLC)
Format: biochemical
Conditions: 0.5 mM Rebaudioside A, 30° C.; for Steviol glycoside conversion in reaction mixture, Reb A (Retention Time ~9.1 min): remaining substrate
Method: The prepared expression medium mix was added to the plasmid solution and the solution was allowed to incubate at 30° C. for 3 hours while mixing the mixture every 45 minutes. 5 μL of the mixture was frozen whereas the remainder was used for the catalytic test for the conversion of Rebaudioside A to Rebaudioside D.
(§1) 430 μL of a reaction mixture containing 0.5 mM Rebaudioside A, 3 mM MgCl2, 50 mM phosphate buffer (pH7.2) and 2.5 mM UDP-glucose was added to a 1.5 mL sterile microtube. 52 μL of the enzyme expression medium was added and the resulting mixture was allowed to react at 30° C. for 24 hours. 125 μL samples were taken after 2 hours, 16 hours and 24 hours and added to a 115 μL of 60% methanol and 10 μL of 2 N H2SO4. The quenched sample was centrifuged at 18,000 g for 2 minutes at RT. 200 μL was transferred to an HPLC vial and analyzed.
The HPLC assay was performed as follows:
as §1, with “to” for “to an”
The HPLC assay was performed as described in EXAMPLE 20.

B1: S115N01 A1: UDP-glucosyltransferase Os03g0702500, Oryza sativa Japonica Group, SEQ ID NO: 3 (protein, listed as Oryza sativa)
chain: MDDAHSSQSPLHVVIFPWLAFGHLLPCLDLAERLAARGHRVSFVSTPRNLARLPPVRPELAELVDLVALPLPRVDGLPDGAEATSDVPFDKFELHRKAFDGLAAPFSAFLDTACAGGKRPDWVLADLMHHWVALASQERGVPCAMILPCSAAVVASSAPPTESSADQREAIVRSMGTAAPSFEAKRATEEFATEGASGVSIMTRYSLTLQRSKLVAMRSCPELEPGAFTILTRFYGKPVVPFGLLPPRPDGARGVSKNGKHDAIMQWLDAQPAKSVVYVALGSEAPMSADLLRELAHGLDLAGTRFLWAMRKPAGVDADSVLPAGFLGRTGERGLVTTRWAPQVSILAHAAVCAFLTHCGWGSVVEGLQFGHPLIMLPILGDQGPNARILEGRKLGVAVPRNDEDGSFDRGGVAGAVRAVVVEEEGKTFFANARKLQEIVADREREERCIDEFVQHLTSWNELKNNSDGQYP
  Steviol glycoside conversion in reaction mixture, Reb D (Retention Time ~5.8 min): 2.1 % area
  Steviol glycoside conversion in reaction mixture, Reb A (Retention Time ~9.1 min): 96.7 % area

B2: S115N01 G2: UDP-glycosyltransferase, Avena strigosa, SEQ ID NO: 4 (protein, listed as Avena strigosa)
chain: MAVKDEQQSPLHILLFPFLAPGHLIPIADMAALFASRGVRCTILTTPVNAAIIRSAVDRANDAFRGSDCPAIDISVVPFPDVGLPPGVENGNALTSPADRLKFFQAVAELREPFDRFLADNHPDAVVSDSFFHWSTDAAAEHGVPRLGFLGSSMFAGSCNESTLHNNPLETAADDPDALVSLPGLPHRVELRRSQMMDPKKRPDHWALLESVNAADQKSFGEVFNSFHELEPDYVEHYQTTLGRRTWLVGPVALASKDMAGRGSTSARSPDADSCLRWLDTKQPGSVVYVSFGTLIRFSPAELHELARGLDLSGKNFVWVLGRAGPDSSEWMPQGFADLITPRGDRGFIIRGWAPQMLILNHRALGGFVTHCGWNSTLESVSAGVPMVTWPRFADQFQNEKLIVEVLKVGVSIGAKDYGSGIENHDVIRGEVIAESIGKLMGSSEESDAIQRKAKDLGAEARSAVENGGSSYNDVGRLMDELMARRSSVKVGEDIIPTNDGL
  Steviol glycoside conversion in reaction mixture, Reb D (Retention Time ~5.8 min): 0.6 % area
  Steviol glycoside conversion in reaction mixture, Reb A (Retention Time ~9.1 min): 99.4 % area

B3: S115N06 E1: hypothetical protein OsJ_04191, Oryza sativa Japonica Group, SEQ ID NO: 6 (protein, listed as Oryza sativa)
chain: MHVVMLPWLAFGHILPFAEFAKRVARQGHRVTLFSTPRNTRRLIDVPPSLAGRIRVVDIPLPRVEHLPEHAEATIDLPSNDLRPYLRRAYDEAFSRELSRLLQETGPSRPDWVLADYAAYWAPAAASRHGVPCAFLSLFGAAALCFFGPAETLQGRGPYAKTEPAHLTAVPEYVPFPTTVAFRGNEARELFKPSLIPDESGVSESYRFSQSIEGCQLVAVRSNQEFEPEWLELLGELYQKPVIPIGMFPPPPPQDVAGHEETLRWLDRQEPNSVVYAAFGSEVKLTAEQLQRIALGLEASELPFIWAFRAPPDAGDGDGLPGGFKERVNGRGVVCRGWVPQVKFLAHASVGGFLTHAGWNSIAEGLANGVRLVLLPLMFEQGLNARQLAEKKVAVEVARDEDDGSFAANDIVDALRRVMVGEEGDEFGVKVKELAKVFGDDEVNDRYVRDFLKCLSEYKMQRQG
  Steviol glycoside conversion in reaction mixture, Reb D (Retention Time ~5.8 min): 0.14 % area
  Steviol glycoside conversion in reaction mixture, Reb UNK (Retention Time ~6.7 min): 7.0 % area
  Steviol glycoside conversion in reaction mixture, Reb A (Retention Time ~9.1 min): 92.8 % area
